This is an account of results in patent US20200062814A1.

Data set [1] relates to mouse IgG1 (Fc)-LAP-MMP-IFN.
In data set [2] the target is mouse IgG1 (Fc)-LAP-MMP-IFN. In words: cell-based or functional assay.

Sequence of recombinant MMP-1 (P03956 100-469): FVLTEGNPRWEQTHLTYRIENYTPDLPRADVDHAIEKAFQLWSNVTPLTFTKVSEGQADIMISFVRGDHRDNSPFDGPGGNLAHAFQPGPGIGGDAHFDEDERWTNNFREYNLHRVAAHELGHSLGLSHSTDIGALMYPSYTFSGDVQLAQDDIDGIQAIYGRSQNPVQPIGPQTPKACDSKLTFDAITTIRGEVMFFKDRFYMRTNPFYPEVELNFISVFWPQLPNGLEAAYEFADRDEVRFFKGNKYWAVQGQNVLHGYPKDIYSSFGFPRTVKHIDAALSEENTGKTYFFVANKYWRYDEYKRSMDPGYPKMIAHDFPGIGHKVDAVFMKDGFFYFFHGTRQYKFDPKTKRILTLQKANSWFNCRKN
Sequence of mouse IgG1 (Fc)-LAP-MMP-IFN (chain, as listed by the source): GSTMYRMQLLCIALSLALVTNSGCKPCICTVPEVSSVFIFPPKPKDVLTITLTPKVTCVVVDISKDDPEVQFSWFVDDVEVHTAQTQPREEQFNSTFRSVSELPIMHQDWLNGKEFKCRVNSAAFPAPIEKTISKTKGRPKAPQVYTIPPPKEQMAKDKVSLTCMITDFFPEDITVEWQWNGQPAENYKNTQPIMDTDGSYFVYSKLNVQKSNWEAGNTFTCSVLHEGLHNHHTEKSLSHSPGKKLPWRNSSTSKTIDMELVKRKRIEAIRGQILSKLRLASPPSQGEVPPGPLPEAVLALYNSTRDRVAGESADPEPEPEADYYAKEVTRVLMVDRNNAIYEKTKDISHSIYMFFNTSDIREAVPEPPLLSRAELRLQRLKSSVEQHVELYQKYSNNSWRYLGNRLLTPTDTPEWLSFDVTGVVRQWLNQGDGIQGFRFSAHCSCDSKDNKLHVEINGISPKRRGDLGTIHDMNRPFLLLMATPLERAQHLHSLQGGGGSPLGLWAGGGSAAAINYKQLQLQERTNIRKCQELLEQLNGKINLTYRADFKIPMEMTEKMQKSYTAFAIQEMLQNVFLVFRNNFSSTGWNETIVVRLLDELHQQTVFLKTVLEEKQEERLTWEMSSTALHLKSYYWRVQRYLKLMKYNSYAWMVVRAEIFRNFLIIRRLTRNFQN

recombinant MMP-1: in data set [1], the IFN biological activity (U/ml) came out at 30 U/ml and the “cleavage of Ig-LAP-IFN by MMP1 (western blot with anti-LAP antibodies after non-denaturing SDS-PAGE)” value is reported as “The molecular weight of the cleaved Ig-LAP corresponds to the expected size of about 160 kDa”.
Take recombinant MMP-1 (enzyme): the Luciferase activity (viability of L929 cells after EMC virus infection) in data set [2] came to 5070.
